Test results taken from paper PMC10786891, “Massively parallel profiling of RNA-targeting CRISPR-Cas13d”.

B1: target 1 A9U,U11C (mixed)
RNA 1: CACCCGUGCAAAAAUGCAGGGGUCUAAAACUGAGCGGAUAACCUCUCUAUGG
RNA 2: GGGAAUGGAUCCACAUCUACGAAUUCGUACCAUAGAGAGGCUUUCCGCUCACCGAGAUCGGAAGAGCACACGU
B2: target 1 insG 3' of 14,insU 3' of 2 (mixed)
RNA 1: CACCCGUGCAAAAAUGCAGGGGUCUAAAACUGAGCGGAUAACCUCUCUAUGG
RNA 2: GGGAAUGGAUCCACAUCUACGAAUUCGUACCAUAGAGAGGGUUAUCCGCUCUACCGAGAUCGGAAGAGCACACGU
B3: target 1 insG 3' of 8,insA 3' of 7 (mixed)
RNA 1: CACCCGUGCAAAAAUGCAGGGGUCUAAAACUGAGCGGAUAACCUCUCUAUGG
RNA 2: GGGAAUGGAUCCACAUCUACGAAUUCGUACCAUAGAGAGGUUAUGCACGCUCACCGAGAUCGGAAGAGCACACGU
B4: target 1 U8G,G15U (mixed)
RNA 1: CACCCGUGCAAAAAUGCAGGGGUCUAAAACUGAGCGGAUAACCUCUCUAUGG
RNA 2: GGGAAUGGAUCCACAUCUACGAAUUCGUACCAUAGAUAGGUUAGCCGCUCACCGAGAUCGGAAGAGCACACGU
B5: target 1 G12U,U19C (mixed)
RNA 1: CACCCGUGCAAAAAUGCAGGGGUCUAAAACUGAGCGGAUAACCUCUCUAUGG
RNA 2: GGGAAUGGAUCCACAUCUACGAAUUCGUACCACAGAGAGUUUAUCCGCUCACCGAGAUCGGAAGAGCACACGU
B6: target 1 insG 3' of 21,insA 3' of 19 (mixed)
RNA 1: CACCCGUGCAAAAAUGCAGGGGUCUAAAACUGAGCGGAUAACCUCUCUAUGG
RNA 2: GGGAAUGGAUCCACAUCUACGAAUUCGUACCGAUAAGAGAGGUUAUCCGCUCACCGAGAUCGGAAGAGCACACGU
B7: target 1 C2A,G5U (mixed)
RNA 1: CACCCGUGCAAAAAUGCAGGGGUCUAAAACUGAGCGGAUAACCUCUCUAUGG
RNA 2: GGGAAUGGAUCCACAUCUACGAAUUCGUACCAUAGAGAGGUUAUCCUCUAACCGAGAUCGGAAGAGCACACGU
B8: target 1 A9U,U19G (mixed)
RNA 1: CACCCGUGCAAAAAUGCAGGGGUCUAAAACUGAGCGGAUAACCUCUCUAUGG
RNA 2: GGGAAUGGAUCCACAUCUACGAAUUCGUACCAGAGAGAGGUUUUCCGCUCACCGAGAUCGGAAGAGCACACGU
B9: target 1 insC 3' of 17,insU 3' of 1 (mixed)
RNA 1: CACCCGUGCAAAAAUGCAGGGGUCUAAAACUGAGCGGAUAACCUCUCUAUGG
RNA 2: GGGAAUGGAUCCACAUCUACGAAUUCGUACCAUAGCAGAGGUUAUCCGCUCAUCCGAGAUCGGAAGAGCACACGU
B10: target 1 insG 3' of 16,insU 3' of 15 (mixed)
RNA 1: CACCCGUGCAAAAAUGCAGGGGUCUAAAACUGAGCGGAUAACCUCUCUAUGG
RNA 2: GGGAAUGGAUCCACAUCUACGAAUUCGUACCAUAGAGGUAGGUUAUCCGCUCACCGAGAUCGGAAGAGCACACGU
B11: target 1 insG 3' of 21,insG 3' of 21 (mixed)
RNA 1: CACCCGUGCAAAAAUGCAGGGGUCUAAAACUGAGCGGAUAACCUCUCUAUGG
RNA 2: GGGAAUGGAUCCACAUCUACGAAUUCGUACCGGAUAGAGAGGUUAUCCGCUCACCGAGAUCGGAAGAGCACACGU
B12: target 1 insG 3' of 16,insG 3' of 2 (mixed)
RNA 1: CACCCGUGCAAAAAUGCAGGGGUCUAAAACUGAGCGGAUAACCUCUCUAUGG
RNA 2: GGGAAUGGAUCCACAUCUACGAAUUCGUACCAUAGAGGAGGUUAUCCGCUCGACCGAGAUCGGAAGAGCACACGU
B13: target 1 C2G,G13A (mixed)
RNA 1: CACCCGUGCAAAAAUGCAGGGGUCUAAAACUGAGCGGAUAACCUCUCUAUGG
RNA 2: GGGAAUGGAUCCACAUCUACGAAUUCGUACCAUAGAGAAGUUAUCCGCUGACCGAGAUCGGAAGAGCACACGU
B14: target 1 insA 3' of 22,insC 3' of 10 (mixed)
RNA 1: CACCCGUGCAAAAAUGCAGGGGUCUAAAACUGAGCGGAUAACCUCUCUAUGG
RNA 2: GGGAAUGGAUCCACAUCUACGAAUUCGUACACAUAGAGAGGUUCAUCCGCUCACCGAGAUCGGAAGAGCACACGU
B15: target 1 insC 3' of 5,insG 3' of 4 (mixed)
RNA 1: CACCCGUGCAAAAAUGCAGGGGUCUAAAACUGAGCGGAUAACCUCUCUAUGG
RNA 2: GGGAAUGGAUCCACAUCUACGAAUUCGUACCAUAGAGAGGUUAUCCGCCGUCACCGAGAUCGGAAGAGCACACGU
B16: target 1 insA 3' of 2 (mixed)
RNA 1: CACCCGUGCAAAAAUGCAGGGGUCUAAAACUGAGCGGAUAACCUCUCUAUGG
RNA 2: GGGAAUGGAUCCACAUCUACGAAUUCGUACCAUAGAGAGGUUAUCCGCUCAACCGAGAUCGGAAGAGCACACGU
B17: target 1 C2G,U19A (mixed)
RNA 1: CACCCGUGCAAAAAUGCAGGGGUCUAAAACUGAGCGGAUAACCUCUCUAUGG
RNA 2: GGGAAUGGAUCCACAUCUACGAAUUCGUACCAAAGAGAGGUUAUCCGCUGACCGAGAUCGGAAGAGCACACGU
B18: target 1 insU 3' of 9,insA 3' of 7 (mixed)
RNA 1: CACCCGUGCAAAAAUGCAGGGGUCUAAAACUGAGCGGAUAACCUCUCUAUGG
RNA 2: GGGAAUGGAUCCACAUCUACGAAUUCGUACCAUAGAGAGGUUAUUCACGCUCACCGAGAUCGGAAGAGCACACGU
B19: target 1 insC 3' of 17,insC 3' of 1 (mixed)
RNA 1: CACCCGUGCAAAAAUGCAGGGGUCUAAAACUGAGCGGAUAACCUCUCUAUGG
RNA 2: GGGAAUGGAUCCACAUCUACGAAUUCGUACCAUAGCAGAGGUUAUCCGCUCACCCGAGAUCGGAAGAGCACACGU
B20: target 1 U10A,C22U (mixed)
RNA 1: CACCCGUGCAAAAAUGCAGGGGUCUAAAACUGAGCGGAUAACCUCUCUAUGG
RNA 2: GGGAAUGGAUCCACAUCUACGAAUUCGUAUCAUAGAGAGGUAAUCCGCUCACCGAGAUCGGAAGAGCACACGU
B21: target 1 insC 3' of 12,insG 3' of 11 (mixed)
RNA 1: CACCCGUGCAAAAAUGCAGGGGUCUAAAACUGAGCGGAUAACCUCUCUAUGG
RNA 2: GGGAAUGGAUCCACAUCUACGAAUUCGUACCAUAGAGAGGCUGUAUCCGCUCACCGAGAUCGGAAGAGCACACGU
B22: target 1 insA 3' of 17,insG 3' of 8 (mixed)
RNA 1: CACCCGUGCAAAAAUGCAGGGGUCUAAAACUGAGCGGAUAACCUCUCUAUGG
RNA 2: GGGAAUGGAUCCACAUCUACGAAUUCGUACCAUAGAAGAGGUUAUGCCGCUCACCGAGAUCGGAAGAGCACACGU
B23: target 1 insU 3' of 12,insA 3' of 11 (mixed)
RNA 1: CACCCGUGCAAAAAUGCAGGGGUCUAAAACUGAGCGGAUAACCUCUCUAUGG
RNA 2: GGGAAUGGAUCCACAUCUACGAAUUCGUACCAUAGAGAGGUUAUAUCCGCUCACCGAGAUCGGAAGAGCACACGU
B24: target 1 insC 3' of 22,insC 3' of 20 (mixed)
RNA 1: CACCCGUGCAAAAAUGCAGGGGUCUAAAACUGAGCGGAUAACCUCUCUAUGG
RNA 2: GGGAAUGGAUCCACAUCUACGAAUUCGUACCCACUAGAGAGGUUAUCCGCUCACCGAGAUCGGAAGAGCACACGU

Biological target: T1, EsCas13d, nuclease-dead (Eubacterium siraeum, UniProt B0MS50, R295A;H300A;R849A;H854A)
T1 sequence: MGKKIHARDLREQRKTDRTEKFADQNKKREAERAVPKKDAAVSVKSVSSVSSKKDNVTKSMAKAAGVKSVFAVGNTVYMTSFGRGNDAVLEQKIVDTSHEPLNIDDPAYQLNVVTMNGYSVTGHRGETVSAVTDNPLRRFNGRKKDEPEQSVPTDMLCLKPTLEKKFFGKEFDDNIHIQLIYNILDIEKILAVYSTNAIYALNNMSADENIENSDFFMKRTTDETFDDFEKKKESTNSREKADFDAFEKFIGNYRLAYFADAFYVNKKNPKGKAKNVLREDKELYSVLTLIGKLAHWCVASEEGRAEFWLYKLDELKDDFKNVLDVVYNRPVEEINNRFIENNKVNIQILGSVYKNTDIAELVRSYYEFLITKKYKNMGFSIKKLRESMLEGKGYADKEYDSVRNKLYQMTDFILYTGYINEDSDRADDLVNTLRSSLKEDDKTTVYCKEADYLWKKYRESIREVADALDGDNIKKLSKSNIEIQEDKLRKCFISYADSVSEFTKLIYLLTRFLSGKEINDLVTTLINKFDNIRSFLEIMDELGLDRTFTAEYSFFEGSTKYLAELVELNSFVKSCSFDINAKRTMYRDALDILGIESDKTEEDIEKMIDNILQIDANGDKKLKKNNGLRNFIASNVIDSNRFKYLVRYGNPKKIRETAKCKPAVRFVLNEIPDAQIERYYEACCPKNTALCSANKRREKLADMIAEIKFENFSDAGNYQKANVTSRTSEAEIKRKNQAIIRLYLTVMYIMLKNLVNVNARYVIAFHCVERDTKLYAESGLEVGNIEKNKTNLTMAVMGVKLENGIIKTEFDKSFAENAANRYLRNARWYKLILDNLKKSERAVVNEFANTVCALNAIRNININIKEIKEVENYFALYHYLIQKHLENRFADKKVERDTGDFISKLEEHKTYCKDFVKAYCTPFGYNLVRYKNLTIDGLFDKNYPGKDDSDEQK
Test: crRNA (strand 1, pre-loaded); Mg2+; 40 mM Tris-HCl pH 7.5, 150 mM NaCl, 6 mM MgCl2, 1 mM DTT, 0.1% Tween-20, 0.2 mg/ml BSA; 25 C; 10 min per concentration, then washed
Conditions: tags: His6-TwinStrep-SUMO cleaved; N-terminal SNAP kept (SNAP-Surface 488); label: 3' end held by stalled T7 RNA polymerase

Binder	Kd [nM]
B1	13 ± 1
B2	12.5 ± 0.8
B3	10.6 ± 0.6
B4	73 ± 12
B5	42 ± 6
B6	64 ± 15
B7	24 ± 1.9
B8	72 ± 9
B9	66 ± 21
B10	26 ± 4
B11	87 ± 24
B12	14.4 ± 2.5
B13	5.4 ± 0.6
B14	29 ± 4
B15	9.2 ± 0.8
B16	8.5 ± 0.5
B17	24.9 ± 2.7
B18	9.5 ± 0.4
B19	39 ± 4
B20	20.8 ± 2.8
B21	11.7 ± 0.8
B22	14.7 ± 1.7
B23	13 ± 0.9
B24	13.3 ± 1.7
